# According to the DeepSol protein solubility set:
# Experiment: soluble on expression in E. coli; label from the status in PepcDB or PDB records
row,Sequence,soluble on expression in E. coli
1,MGSDKIHHHHHHMLITCSESGIDFGKSLSTYIHEYLGLNRNCRLFEVKQACYSGTAGFQMAVNFILSQTSPGAKALVIASDISRFLIAEGGDALSEDWSYAEPSAGAGAVAVLVGENPEVFQIDPGANGYYGYEVMDTCRPIPDSEAGDSDLSLMSYLDCCEQTFLEYQKRVPGANYQDTFQYLAYHTPFGGMVKGAHRTMMRKVAKVKTSGIETDFLTRVKPGLNYCQRVGNIMGAALFLALASTIDQGRFDTPKRIGCFSYGSGCCSEFYSGITTPQGQERQRTFGIEKHLDRRYQLSMEEYELLFKGSGMVRFGTRNVKLDFEMIPGIMQSTQEKPRLFLEEISEFHRKYRWIS,not soluble
2,MGSDKIHHHHHHMLKKQLFADRLLAQMPSLRALRCFVTAARYESFTQAAEVLCVTQAAVSRQIKELEDSLDVALFERTGRHIALTDAGRILYNASYLSIMNIAEAAEAVRRTDKHALMICVSHTFSALWLSSRLPAFRERFPDIRLNLIVTEHFMELDGLIEPDVIITKNPPREPEFDVEPMFHDIVYPVCSPAFHERHFHGRSLKPLDLLSRPTLNLSMLGRAQVCEHVDWRVWRNWFQQGDGTDTLTENKYLESNDYRLLVAQAEAGEGTLLGWHHLVHRQIDQGILMRPVQDVLVFRDRHHYLITHRNAQPRPEYQQFRQWLNDEVGVMMRGWLDAGVEGEQ,not soluble
3,MGSDKIHHHHHHMLKNDQLDQWDRDNFFHPSTHLAQHARGESANRVIKTASGVFIEDRDGTKLLDAFAGLYCVNVGYGRQEIAEAIADQARELAYYHSYVGHGTEASITLAKMILDRAPKNMSKVYFGLGGSDANETNVKLIWYYNNILGRPEKKKIISRWRGYHGSGLVTGSLTGLELFHKKFDLPVEQVIHTEAPYYFRREDLNQTEEQFVAHCVAELEALIEREGADTIAAFIGEPILGTGGIVPPPAGYWEAIQTVLNKHDILLVADEVVTGFGRLGTMFGSDHYGLEPDIITIAKGLTSAYAPLSGSIVSDKVWKVLEQGTDENGPIGHGWTYSAHPIGAAAGVANLKLLDELNLVSNAGEVGAYLNATMAEALSQHANVGDVRGEGLLCAVEFVKDRDSRTFFDAADKIGPQISAKLLEQDKIIARAMPQGDILGFAPPFCLTRAEADQVVEGTLRAVKAVLG,not soluble
4,MGSDKIHHHHHHMLKRLLDYNDGEEMDIVVLIKNSQLRRNKKDKLFLAMQFGDGSGEIRGNYWDASHQDAATFSTGTIVELNGKREEYQGRPQIRIYSLRVVGPQEGYSLDEFIKSAPETTNDMKGEIDDFVKQIQNRTWRSIVEYLLKKWDKRFFDYPAGKSNHHALRGGLAYHTLAMLKDARGLADNYEQINRSLLYAGCILHDMGKVQELTGPAATQYTIEGNLVGHLVLIDEQIMLAAQDLKIDLESEDLLLLRHMVLSHHGKFEYGSPKLPALLEAEILHRIDDLDAMVYAVTNALQHTGKGTFTEPLQSQDGKRYYRPKNDPELDQAKNLE,not soluble
5,MGSDKIHHHHHHMLKTKTALTLSDKNYYSTEADWHYMSVSQYKNFNECEAATIARLKKIWLPCSDPKALLVGNYVHSYFESSKIHDLFKKENKDKMFSSRKPYGLLKDFQIAEQMIQRLKEEPAFMNLYKGEKEVIVTGQIENVNWKGKIDCLNLEDGYFVDIKTTKDIHERKWNDSYAERCTFIENYGYVLQMAVYKELLSQKYNREFVPIIAAVSKQTPSEVKLITLDEDKMHFEMIQLKENIEHIIKVKNGEEKPTLCGRCEYCRGQQRITHFTNMNDL,not soluble
6,MGSDKIHHHHHHMLLHFVPINVFRETPQVSFFDAGVNGSNGADVVIHHKNAISPPDDGNFEQYYIHNHQVDHNLVIEGSRKFTLINPKWDEPHHVIFLNRAMGALQIPIGTYHRSESGKEGSIVLNQATRDDMFDQRKEFSPVSLRSNKQLRKARQAHPVYWIWEEERIKRVKLDCKGYSKNIKLEPLKTAH,not soluble
7,MGSDKIHHHHHHMLLIDTHAHVLSPDRTTFPRDYGLDMAWARGDLSAQQLVAAMDESSISKTLLIQAYSAYRYDNSYLESVIGEFPDRFAGVCMVDPLARDVSDRLTSLIVDRKFAGTRIVIVQPEPRLDDPAMAPFYETCAELRTPLCVLTIPPKLKELEVPLSQWPSLQVVVEHLGLIHTASGDSVSKERPLLDLARFPNCILKFSTISLRVAAAFEGGAQGQFERLIDAFGAQRLMWGSDYPSTPEGGIPGLVNEMHQALDFLPHHDLALLSGEAACRIWSTLRPVSSRGLA,not soluble
8,MGSDKIHHHHHHMLMELTTTSHALKEWAVAVNALESGKTIMLLRKGGIHERNGNFQVAHKQILLYPTYEHQQAFMLKPEYANRVYPVTSGWHPETVRIGSWAEITDILPISDEFLVNALLPFHIWNEHFISDRLKWKPRQPLYILLLRTYKLTQDQEIPYHPKYGGCKSWIDLDQSINLQETTPALSDFAYTQLVQTIRGIVGDKMARKIDMLNYNSTFS,not soluble
9,MGSDKIHHHHHHMLNPREIRTIEDAKRIVEERQLTHVKVGLFDIDGVMLGKYMSRNKFFSALEHGFAFCDVILGWDSKDKLYDNVKYTGWHTGYPDASVRIVPSTCREILFEENQLLFMAEFSQAAEAICPRGILRRVINKAAGMGYDVYAALEYEFFVFDETPDSVRAKGFRNLKPVTPDNFGYSIIRNTVHAEFYHQILTMAEKMDFPIEGLHTETGPGVLEAAIAVDDAEAAGDKAALFKTFMKILAQRNNKMATFMAKWSGDYPGQSGHIHLSLRDRDGGKSAFYESGREYNMSKIQRHFLAGQQKLMPEFLAMLSPTVNSYSRLIPGYWAPTEATWGVENRTTALRVIPGSDKSQRIEYRLGSADANPYLALAAAIGSGLYGIENELEPEAEVKGNSYEQHHSPALALPRTLWESAQNLKNSSAAYELFGQEFVEHFAASREWEEREFRKHITDWELDRYFEII,not soluble
10,MGSDKIHHHHHHMLNQQWLTTFIKLVEVGHFTHTAEQLFMTQPGVSQHIKKLEQQVGVDLLIRIGKSFELTEAGIVLYQQALVWQQQQQQVLSQLAVDDEHVGDCRLACSGSMALLLYPHLIDYQLPYSQLQIYLEAAPNKRIIDSVMTNTIDVGIITQPINMDELVVTPLAAQSLCLVLPQSYLHQSVTFEQLMELGMVSHPDAMHYWSQIVGQYFTKKQALALQVPIRSYVNQLNQILVPVAKGLAFAVLPQFAVDHFGQQQHIRVASFTTEQANNVVVSEPLFIIYKKHRPLARRYGPIIDKIKQLVK,not soluble
11,MGSDKIHHHHHHMLQIKRKINATQSLMKITRAMEMVARAKVRKIESEYQKFKPFYDEVKRLWALVPAESLDPIFFEEGNRDLIVVITSDMGLCGSFNSEILREAERVISESRDPHLILVGLKAINHFKDGKVLKMYDRFYEIPDFRNGSTIVEDILNFLDGKPARVRVIFSRFKNVLIQRPEVHELLPIKKEEKKREDFEYEPRLEQIAPLIFHYYLSATLMELMFQTKIGEYYARQNAMKNATDNAQEVIRELTLAYNKARQASITQELIEIVTGAEALKEIEK,not soluble
12,MGSDKIHHHHHHMLQLPDSPPRMKTLVSVDESYKLCRHLTAKYAKTFYLGTLLMSPVKRQSIWSIYAWCRRTDELVDGPASAITTPETLDLWEQQLESIFAGRPLENYDVALVDTLQRFPMDIQPFRDMIAGQRMDLYRSRYETFEDLYLYCYRVAGTVGLMSTEVMGVDSTLYTAPWHQNKQPYLPTEEAIALGIANQLTNILRDVGEDAKRGRIYIPLEDLEKFNYTEQDFFKGVVDDRWRALMRFQIERARQFYTTSNQGITYLASDARWPVWAASMLYGQILEVIERNDYDVFSRRAFVPQWKKLRTLPLAWMRSQVL,not soluble
13,MGSDKIHHHHHHMLQNPIHLRLERLESWQHVTFMACLCERMYPNYAMFCQQTGFGDGQIYRRILDLIWETLTVKDAKVNFDSQLEKFEEAIPSADDFDLYGVYPAIDACVALSELVHSRLSGETLEHAVEVSKTSITTVAMLEMTQAGREMSDEELKENPAVEQEWDIQWEIFRLLAECEERDIELIKGLRADLREAGESNIGIIFQQ,not soluble
14,MGSDKIHHHHHHMLQVTDVSLRFGDRKLFEDVNIKFTEGNCYGLIGANGAGKSTFLKILSGELDSQTGHVSLGKNERLAVLKQDHYAYEDERVLDVVIKGHERLYEVMKEKDEIYMKPDFSDEDGIRAAELEGEFAEMNGWNAEADAANLLSGLGIDPTLHDKKMAELENNQKIKVLLAQSLFGEPDVLLLDEPTNGLDIPAISWLEDFLINFDNTVIVVSHDRHFLNNVCTHIADLDFGKIKVYVGNYDFWYQSSQLAQKMAQEQNKKKEEKMKELQDFIARFSANASKSKQATSRKKQLEKIELDDIQPSSRRYPFVKFTPEREIGNDLLIVQNLSKTIDGEKVLDNVSFTMNPNDKAILIGDSEIAKTTLLKILAGEMEPDEGSFKWGVTTSLSYFPKDNSEFFEGVNMNLVDWLRQYAPEDEQTETFLRGFLGRMLFSGEEVKKKASVLSGGEKVRCMLSKMMLSSANVLLLDEPTNHLDLESITAVNDGLKSFKGSIIFTSYDFEFINTIANRVIDLNKQGGVSKEIPYEEYLQEIGVLK,not soluble
15,MGSDKIHHHHHHMLRGMYTASGAMQALQRQQEMLSNNLANARTPGFRADQASLRTFPEMMIQQSGVNEQSGVRSRGTVGKLATGVFMQAATPNFALGSITETGNATDLQISSLEGAALFTIRHADPATGEEETLYTTNGQFAVGQDGLLRTTENDLVLGDAGQPLNVVNEDFTVSADGAVTDGNGQAIGNLGLVVTNQPETLERTGNGLFRSPDALNGGAIKVDQGVLELGNVEVEQTMTEMNAGLRQFEANQKVIQAYDRTAEKAVSEIGRVR,not soluble
16,MGSDKIHHHHHHMLSNKNKIRKLLNGIETGDPDAALVVNEQKYIQHNPHTKEGNIGLAELFKQIAKTGPRVNMIRVFEDKDFVFAHMEYHFSTLKVAFEVFRFEDGFAVEHWDNMQLMQKVNASGRSMLDGYLITEDHDLTEFNRSRVSLFANEILIKRKLDLLIDFVCDDNFIQHSPLLADGISALRSTLSATSKQKYKITYSKIHRVLAEGNFVLSVSEGLMDEKHCSFYDLYRIEKGKIVEHWDTIEPIPPRTEWKNDNGKF,not soluble
17,MGSDKIHHHHHHMLSRILEKYRENGIQGIVLALISRFPGVRAVCVYYVYRLPFDKLVRKQLSVGNLKVVQVKSDSMGDLIRVQDKPDIFGERFQMGHYGFVAYVNNDPVAYLWGQEGPVHVERRFGFEVPIKDNQVFYYDSYTIPEWRKSGVGRALIQESIDFFKNGLGKSELIAIIETGNLVSQKTYERMGFVREAMHIHLDIIGKKINKQLARMVTQ,not soluble
18,MGSDKIHHHHHHMLSRTADHLFWMARYTERAENTARMLDVNYQTSLLPQSAEVAEQGWWAMLDISELTNAFDHKYGLLTRDDVIDFMVRDMTNPSSIMSCLRAARENARAVRGSLTTEVWETVNTTWLDVQRMIADGELQEDPSRFFEWVKFRSHLARGVQFGTMLKDDAFHFMRLGTFLERADNTARILDVKFQASGSDDSDPNREQNDFYHWAAVLRSVSGFEVYRKVYRAVITPQRVAELLILRPDMPRSLVSSMDEVVAILAMVCNHQSGETERQAGKLHADLKFARIDDIFAVGLHAFLTSFLERIGDIGNGISRDFLVPLQAA,not soluble
19,MGSDKIHHHHHHMLSRVAENLYWMARYLERTEDMARLINATTLLLLDLPQGAEFGWDILLQVTGDAKLYMEHYGTPEEGRIMRFLIADERNPNSVMAAIHQARENCRTFRDLLPAEFWERLNTLFLFVREHAGTSSDSRHARYAFLNEVISRRHALVGLLISSMSQDNVYQFIKLGRNMERADMTTRIVDVTSAVILPQDQGLQKTTTSSLWLGVLRALSAFEMYRRHVSVQVRSNQVVDYLLKDNKFPRSMKYCLGEMEVALAYLPNAGIPAEAVRRARRRLDALKLANLRPDLLHEYLDQAQKDLAMVHRTIHGTYFARDDTGFDGVPSGLLLNAAQA,not soluble
